From article doi:10.1101/2025.05.02.651933 (bioRxiv, 2025)

Biological target: HIV gp120 monomer of strain CN97001 (HIV-1, strain CN97001 (paper: clade C); …, UniProt G4XFJ5, strain)
Experiment: BLI

B1: recombinant bnAb 10-1074 (from pTT3 10-1074 NHP-IgG) (antibody, V domains shown)
VH: QVQLQESGPGLVKPSETLSVTCSVSGDSMNNYYWTWIRQSPGKGLEWIGYISDRESATYNPSLNSRVVISRDTSKNQLSLKLNSVTPADTAVYYCATARRGQRIYGVVSFGEFFYYYSMDVWGKGTTVTVSS
VL: LSVALGETARISCGRQALGSRAVQWYQHRPGQAPILLIYNNQDRPSGIPERFSGTPDINFGTRATLTISGVEAGDEADYYCHMWDSRSGFSWSFGGATRLTVL
  binding result: binds
